Read-outs that look alike come from different tables or passages of the source.
Key:
[1] = target: T1, DNMT3B catalytic domain (3B-CD);DNMT3L catalytic-like domain (3L-CD) (Homo sapiens;Homo sapiens, UniProt Q9UBC3;Q9UJW3 571-853;178-379, |); test: X-ray crystallography
crystal structure = target: the molecule itself; test: crystal structure
[2] = target: T1, DNMT3B catalytic domain (3B-CD);DNMT3L …; test: X-ray crystallography; remark: listed apart in the source

T1 sequence (Q9UJW3 178-379, one chain of several): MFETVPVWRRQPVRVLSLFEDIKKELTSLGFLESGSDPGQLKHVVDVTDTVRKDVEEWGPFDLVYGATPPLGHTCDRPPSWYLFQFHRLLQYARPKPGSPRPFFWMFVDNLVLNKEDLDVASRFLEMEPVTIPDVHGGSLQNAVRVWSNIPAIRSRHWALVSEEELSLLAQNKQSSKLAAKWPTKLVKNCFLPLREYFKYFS

B1: CpGpG crystallization duplex (dsDNA)
DNA 1: GAATTCGGAAAAATTTTTCCGAATT
DNA 2: GAATTCGGAAAAATTTTTCCGAATT
binding result [1]: binds

B2: catalytic domain of human DNMT3B (3B-CD, residues 571–853) (domain or fragment, UniProt Q9UBC3 571-853, looked up)
chain: RRRPIRVLSLFDGIATGYLVLKELGIKVGKYVASEVCEESIAVGTVKHEGNIKYVNDVRNITKKNIEEWGPFDLVIGGSPCNDLSNVNPARKGLYEGTGRLFFEFYHLLNYSRPKEGDDRPFFWMFENVVAMKVGDKRDISRFLECNPVMIDAIKVSAAHRARYFWGNLPGMNRPVIASKNDKLELQDCLEYNRIAKLKKVQTITTKSNSIKQGKNQLFPVVMNGKEDVLWCTELERIFGFPVHYTDVSNMGRGARQKLLGRSWSVPVIRHLFAPLKDYFACE
binding result (crystal structure): binds

B3: CpGpT crystallization duplex (dsDNA)
DNA 1: GCATGCGTTCTAATTAGAACGCATG
DNA 2: GCATGCGTTCTAATTAGAACGCATG
binding result [2]: binds
